# Laboratory results reported in the Immune Epitope Database (IEDB).
# Tests used:
# [1] = molecular target: HLA-A*02:01; experiment: IEDB peptide-MHC binding, purified MHC/direct/fluorescence; filed as Kd, often an IC50 or EC50 that approximates it; ≥ and ≤ were set here for values at or beyond the usual limits of such assays; settings: source organism: Salmonella enterica subsp. enterica serovar Typhimurium
# [2] = molecular target: HLA-A*69:01; experiment: as above; settings: source organism: Salmonella enterica subsp. enterica serovar Typhimurium
# [3] = molecular target: HLA-B*15:01; experiment: as above; settings: source organism: Salmonella enterica subsp. enterica serovar Typhimurium
# [4] = molecular target: HLA-A*30:01; experiment: IEDB peptide-MHC binding, purified MHC/competitive/radioactivity; filed as Kd, often an IC50 or EC50 that approximates it; ≥ and ≤ were set here for values at or beyond the usual limits of such assays
# [5] = molecular target: HLA-A*26:01; experiment: as above; settings: source organism: Dengue virus 4 Philippines/H241/1956
# [6] = molecular target: HLA-A*02:01; experiment: IEDB peptide-MHC binding, purified MHC/competitive/fluorescence; ≥ and ≤ were set here for values at or beyond the usual limits of such assays
# [7] = molecular target: HLA-A*24:02; experiment: as above
# [8] = molecular target: HLA-B*44:02; experiment: IEDB peptide-MHC binding, purified MHC/competitive/radioactivity; filed as Kd, often an IC50 or EC50 that approximates it; ≥ and ≤ were set here for values at or beyond the usual limits of such assays; settings: source organism: Dengue virus 2 Jamaica/1409/1983
# [9] = molecular target: HLA-A*01:01; experiment: IEDB peptide-MHC binding, purified MHC/direct/fluorescence; filed as Kd, often an IC50 or EC50 that approximates it; ≥ and ≤ were set here for values at or beyond the usual limits of such assays
# [10] = molecular target: HLA-B*57:01; experiment: as above
# [11] = molecular target: HLA-B*58:01; experiment: as above
# [12] = molecular target: HLA-B*40:01; experiment: as above
# [13] = molecular target: HLA-A*23:01; experiment: IEDB peptide-MHC binding, purified MHC/competitive/radioactivity; filed as Kd, often an IC50 or EC50 that approximates it; ≥ and ≤ were set here for values at or beyond the usual limits of such assays
# [14] = molecular target: HLA-A*24:02; experiment: as above
# [15] = molecular target: HLA-A*29:02; experiment: as above
# [16] = molecular target: HLA-A*11:01; experiment: IEDB peptide-MHC binding, purified MHC/direct/fluorescence; filed as Kd, often an IC50 or EC50 that approximates it; ≥ and ≤ were set here for values at or beyond the usual limits of such assays
# [17] = molecular target: HLA-A*03:01; experiment: IEDB peptide-MHC binding, purified MHC/competitive/radioactivity; filed as Kd, often an IC50 or EC50 that approximates it; ≥ and ≤ were set here for values at or beyond the usual limits of such assays; settings: source organism: Dengue virus 2 Jamaica/1409/1983
# [18] = molecular target: HLA-A*11:01; experiment: as above; settings: source organism: Dengue virus 2 Jamaica/1409/1983
# [19] = molecular target: HLA-B*46:01; experiment: IEDB peptide-MHC binding, purified MHC/competitive/fluorescence; filed as Kd, often an IC50 or EC50 that approximates it; ≥ and ≤ were set here for values at or beyond the usual limits of such assays
# [20] = molecular target: HLA-A*02:02; experiment: IEDB peptide-MHC binding, purified MHC/competitive/radioactivity; filed as Kd, often an IC50 or EC50 that approximates it; ≥ and ≤ were set here for values at or beyond the usual limits of such assays; settings: source organism: Vaccinia virus WR
# [21] = molecular target: HLA-A*02:03; experiment: as above; settings: source organism: Vaccinia virus WR
# [22] = molecular target: HLA-A*02:06; experiment: as above; settings: source organism: Vaccinia virus WR
# [23] = molecular target: HLA-B*07:02; experiment: IEDB peptide-MHC binding, purified MHC/direct/fluorescence; filed as Kd, often an IC50 or EC50 that approximates it; ≥ and ≤ were set here for values at or beyond the usual limits of such assays; settings: source organism: Mycobacterium avium 104
# [24] = molecular target: HLA-B*51:01; experiment: IEDB peptide-MHC binding, purified MHC/competitive/fluorescence; filed as Kd, often an IC50 or EC50 that approximates it; ≥ and ≤ were set here for values at or beyond the usual limits of such assays; settings: source organism: Mycobacterium tuberculosis C
# [25] = molecular target: HLA-A*01:01; experiment: IEDB peptide-MHC binding, purified MHC/competitive/radioactivity; filed as Kd, often an IC50 or EC50 that approximates it; ≥ and ≤ were set here for values at or beyond the usual limits of such assays
# [26] = molecular target: HLA-A*30:02; experiment: as above
# [27] = source organism: Vaccinia virus WR
# [28] = source organism: Sudan ebolavirus
# [29] = source organism: Dengue virus 4 Dominica/814669/1981
# [30] = source organism: Burkholderia mallei
# [31] = source organism: Salmonella enterica subsp. enterica serovar Typhimurium
# [32] = source organism: Mammarenavirus whitewaterense
# [33] = source organism: Yellow fever virus
# [34] = source organism: Dengue virus 2 Jamaica/1409/1983
# [35] = source organism: Mammarenavirus juninense
# [36] = source organism: Zaire ebolavirus
# [37] = source organism: Cryptosporidium hominis
# [38] = source organism: Mammarenavirus guanaritoense
# [39] = source organism: Dengue virus 4 Philippines/H241/1956
# [40] = source organism: Dengue virus 1 Brazil/97-11/1997
# [41] = source organism: Dengue virus 3 Martinique/1243/1999
sequence,measurement,setting,value
GLIEEMASA,Kd,[1],0.02 µM
same,Kd,[2],≥ 20.9 µM
same,Kd,[3],4.5 µM
GNRGSTSFK,Kd,[4]; [27],0.00204 µM
HAFSSLLSG,Kd,[4]; [27],1.11 µM
HTAITQVRNL,Kd,[5],2.27 µM
IDNNTFVRL,IC50,[6]; [28],≥ 149 µM
same,IC50,[7]; [28],67.9 µM
ILPWTKISE,IC50,[6]; [27],≥ 247 µM
same,IC50,[7]; [27],33.1 µM
KDLISYGGGW,Kd,[8],0.31 µM
KGKRALTPPV,Kd,[4]; [29],0.0124 µM
KQRLTNLEK,Kd,[4]; [27],0.000951 µM
KSSLEVYIY,Kd,[9]; source organism: Orthohantavirus hantanense,0.158 µM
KVKKLNRCA,Kd,[4]; [27],0.00312 µM
KVKWLQNSV,Kd,[4]; source organism: Vaccinia virus Copenhagen,0.000497 µM
LAASVFFTF,Kd,[10]; [30],2.14 µM
same,Kd,[11]; [30],0.203 µM
LENLMWKQI,Kd,[8],0.0222 µM
LEVPAMGVL,Kd,[12]; source organism: Mycobacterium tuberculosis,0.025 µM
LGYPFAWFL,Kd,[1],0.831 µM
same,Kd,[2],0.307 µM
same,Kd,[11]; [31],0.102 µM
LLQFIVFLL,Kd,[13]; [32],18.8 µM
same,Kd,[14]; [32],≥ 77.5 µM
same,Kd,[15]; [32],≥ 23.4 µM
LTLKGTSYK,Kd,[16]; [33],0.0056 µM
LTSRATWAK,Kd,[17],0.0586 µM
same,Kd,[18],0.0448 µM
same,Kd,[4]; [34],0.176 µM
LVIASLPLF,Kd,[13]; [35],0.0191 µM
same,Kd,[14]; [35],0.484 µM
same,Kd,[15]; [35],1.21 µM
MRTNFLIKF,IC50,[6]; [36],≥ 673 µM
same,IC50,[7]; [36],4.17 µM
MSFSDTFEM,Kd,[10]; [37],0.0553 µM
same,Kd,[11]; [37],0.0006 µM
same,Kd,[19]; source organism: Cryptosporidium parvum Iowa II,0.205 µM
MTSTRTIIL,Kd,[20],1.34 µM
same,Kd,[21],0.84 µM
same,Kd,[22],6.79 µM
same,Kd,[4]; [27],0.267 µM
NSRHNAQHK,Kd,[9]; [31],≥ 20 µM
PFARLLNLS,IC50,[6]; [36],≥ 309 µM
same,IC50,[7]; [36],15.8 µM
QQICSNFKI,Kd,[13]; [38],0.0988 µM
same,Kd,[14]; [38],13.1 µM
same,Kd,[15]; [38],3.77 µM
RGRIGRNPA,Kd,[4]; [39],0.0323 µM
RHERGRPLLF,Kd,[13]; [39],0.248 µM
RLKDYQHFV,Kd,[4]; [27],0.000394 µM
RTLAKEGIK,Kd,[17],0.03 µM
same,Kd,[4]; [34],0.217 µM
RVFNEYGFV,Kd,[4]; [27],0.142 µM
SEFCDMLRL,Kd,[12]; [38],0.0842 µM
STRVGMGEA,Kd,[4]; [40],0.00502 µM
SVKCTHPLV,Kd,[4]; [27],0.000968 µM
SYTQMCDHRL,Kd,[14]; [40],0.184 µM
TAVDFGNSY,Kd,[19]; [33],0.116 µM
TPKFTRMVV,Kd,[23],0.104 µM
same,Kd,[24],≥ 20 µM
TPKGPKVKY,Kd,[16]; source organism: SARS-CoV1,≥ 46.1 µM
TYQNKVVKV,Kd,[13]; [41],6.52 µM
VSSWEEVPY,Kd,[25]; [40],0.269 µM
same,Kd,[26]; [40],1.86 µM
VTRKHMILV,Kd,[4]; [39],0.0194 µM
VTTWENVPY,Kd,[25]; [41],0.59 µM
same,Kd,[26]; [41],0.0109 µM
VTYKCPLLV,Kd,[25]; [29],2.19 µM
WFFDLPLPW,Kd,[13]; [41],0.024 µM
same,Kd,[14]; [41],0.0622 µM
WFFDLPLPWT,Kd,[4]; [41],16.3 µM
WVIILFQRT,IC50,[7]; [36],≥ 1990 µM
YTDFPCQYV,Kd,[25]; source organism: Homo sapiens,0.0018 µM
YTRVLKPSV,Kd,[4]; [27],0.738 µM
YWVSNASGNI,Kd,[13]; [34],1.33 µM
YYMATLKNVT,Kd,[14]; [39],1.54 µM
